Patent US12138316B2, “Anti-B7H3 antibody-drug conjugate and use thereof” (Duality Biologics (Suzhou) Co., Ltd., priority 2023, dated 2024)

Key:
[1] = Pharmacokinetic study, single intravenous infusion in cynomolgus monkeys; details: both sexes, cynomolgus monkey, in vivo
Procedure: 18 cynomolgus monkeys (half female and half male) were weighed one day before administration, stratified based on the weight, and then randomly divided into 3 groups (3 females and 3 males/group): a low dose group (1 mg/kg), a medium dose group (3 mg/kg), and a high dose group (10 mg/kg). […] Blood was collected from the forelimb veins of cynomolgus monkeys in each group, and treated samples of the blood collected at 0 h before and 0.5 […], and 672 h after the administration were used as PK samples. After the blood collection at each time point was completed, serum was obtained by centrifugation for sample analysis.

human B7H3 = molecular target: T1, human B7H3 (Homo sapiens, UniProt Q5ZPR3); experiment: FACS binding to human B7H3-expressing cells MCF-7
T1 construct: MCF-7 cells expressing human full-length B7H3; host or cells: MCF-7
T1 sequence (Q5ZPR3 29-534): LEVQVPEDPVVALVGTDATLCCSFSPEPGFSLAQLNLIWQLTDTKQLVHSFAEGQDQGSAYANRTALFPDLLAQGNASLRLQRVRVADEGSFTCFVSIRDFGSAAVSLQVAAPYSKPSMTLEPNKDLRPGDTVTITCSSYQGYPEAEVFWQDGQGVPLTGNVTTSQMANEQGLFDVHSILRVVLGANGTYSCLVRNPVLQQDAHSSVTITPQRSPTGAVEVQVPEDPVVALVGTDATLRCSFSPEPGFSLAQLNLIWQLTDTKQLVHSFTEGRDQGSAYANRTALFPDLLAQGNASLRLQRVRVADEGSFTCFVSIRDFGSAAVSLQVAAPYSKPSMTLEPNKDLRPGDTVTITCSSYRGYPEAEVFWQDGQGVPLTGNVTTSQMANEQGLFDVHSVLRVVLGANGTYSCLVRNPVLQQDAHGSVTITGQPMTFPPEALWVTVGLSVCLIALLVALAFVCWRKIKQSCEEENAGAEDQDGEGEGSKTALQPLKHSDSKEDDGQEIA
Procedure: (§1) FACS was used to detect the binding of antibodies to human B7H3. This method allows quantitative analysis and identification of specific molecules expressed on the surface of living cells. Unlabeled cells were used as a control to set a threshold before the assay, and the percentage change for each group that exceeded the fluorescence intensity threshold was analyzed. MCF-7 cells expressing human full-length B7H3 (1×10^5 cells/well) were incubated with various concentrations of antibodies (3.16-fold serially diluted with 1×DPBS/1% BSA from 50 nM to 0.0005 nM) in a volume of 100 μL/well in a refrigerator set to 4° C. for 1 h. Anti-human B7H3 reference antibody enoblituzumab (MacroGeneics) was used as a positive control. Human IgG1 isotype antibody was used as a negative control. After washing the cells with 1×DPBS/1% BSA, Alexa 647 goat anti-human antibody (diluted in a 1:500 ratio in 1×DPBS/1% BSA) was added. The cells were incubated in a refrigerator set to 4° C. for 0.5 h in the dark. The mean fluorescence intensity (MFI) of the cells was measured by a flow cytometry and analyzed by FlowJo. EC50 values were calculated by four-parameter non-linear regression analysis using GraphPad Prism 7 software.

[2] = system: human B7H3-expressing cells MCF-7; experiment: Internalization test (HCS) in MCF-7 cells; assay type: cell-based
Procedure: Antibody internalization was determined by operetta CLS (PerkinElmer), a high-content imaging and analysis system that can collect and analyze images of samples at high speed and high sensitivity. MCF-7 cells expressing human full-length B7H3 (1.5×10^4 cells/well) were seeded into a 96-well clear bottom black plate pre-coated with 8 μg/mL poly-D-lysine. After incubation in an incubator set to 37° C., 5% CO2 overnight, various concentrations of the antibodies (3.16-fold serially diluted with 1×DPBS/1% BSA from 50 nM to 0.0005 nM) were incubated in a volume of 100 μL/well in a refrigerator set to 4° C. for 2 h. Anti-human B7H3 reference antibody enoblituzumab (MacroGeneics) was used as a positive control. Human IgG1 isotype antibody was used as a negative control. After washing the cells with 1×DPBS/1% BSA, Alexa 647 goat anti-human antibody (diluted in a 1:500 ratio in 1×DPBS/1% BSA) was added. The cells were incubated in a refrigerator set to 4° C. for 1 h in the dark. The cells were then washed once and resuspended in 1×DPBS/1% BSA at 37° C. for 2 h. […] The mean fluorescence intensity (MFI) of the cells was measured and analyzed by operetta CLS. EC50 values were calculated by four-parameter non-linear regression analysis using GraphPad Prism 7 software.

cynomolgus monkey B7H3 [3] = experiment: FACS binding to cynomolgus monkey B7H3-transfected stable cell pool
Procedure: as §1, with “to cynomolgus monkey” for “to human”, “B7H3. FlpinCHO” for “B7H3. This method allows quantitative analysis and identification of specific molecules expressed on the surface of living cells. Unlabeled”, “were transfected with cynomolgus monkey B7H3 (W3XX088-FlpinCHO.cProl.pool) (1×10^5 cells/well),” for “were used as a control to set a threshold before the assay,”, “the transfected” for “the percentage change for each group that exceeded the fluorescence intensity threshold was analyzed. MCF-7”, “cells” for “cells expressing human full-length B7H3 (1×10^5 cells/well)”

human 4IgB7H3 = molecular target: T2, human 4IgB7H3 (Homo sapiens, UniProt Q5ZPR3); experiment: Binding affinity for human 4IgB7H3 (SPR)
T2 construct: Uniprot ID: Q5ZPR3, amino acids 29-461; made in house; host or cells: Expi293F
T2 sequence (Q5ZPR3 29-461): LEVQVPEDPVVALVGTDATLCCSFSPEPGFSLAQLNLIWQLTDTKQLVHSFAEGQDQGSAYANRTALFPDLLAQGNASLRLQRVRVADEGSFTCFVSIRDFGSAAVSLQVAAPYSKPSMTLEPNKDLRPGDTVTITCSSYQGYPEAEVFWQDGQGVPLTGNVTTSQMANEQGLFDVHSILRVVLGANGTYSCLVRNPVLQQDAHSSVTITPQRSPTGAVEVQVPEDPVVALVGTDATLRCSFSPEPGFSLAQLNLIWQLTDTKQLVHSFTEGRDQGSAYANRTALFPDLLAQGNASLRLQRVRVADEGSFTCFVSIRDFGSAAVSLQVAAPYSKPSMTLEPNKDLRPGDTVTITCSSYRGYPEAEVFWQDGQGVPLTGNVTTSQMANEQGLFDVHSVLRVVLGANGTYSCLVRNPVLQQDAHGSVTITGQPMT
Procedure: (§2) The affinity of antibodies for human 4IgB7H3 was determined using surface plasmon resonance (SPR). The affinity of antibodies for human 4IgB7H3 was determined by Biacore 8K. An activator was prepared by mixing 400 mM EDC and 100 mM NHS (GE) immediately prior to injection into the channel. The CM5 sensor chip was activated for 420 seconds with the activator. Goat anti-human Fc IgG (30 μg/mL in 10 mM NaAc, pH 4.5) was then injected into the channel at a flow rate of 10 μL/min for 420 seconds. The chip was deactivated by 1 M ethanolamine hydrochloric acid. The antibodies diluted in running buffer (1×HBS-EP+) were injected into the channel at a flow rate of 10 μL/min for 30 seconds. Seven concentrations (100 nM, 50 nM, 25 nM, 12.5 nM, 6.25 nM, 2.125 nM, and 1.563 nM) of analyte human 4IgB7H3 were injected sequentially into the channel at a flow rate of 30 μL/min for an association phase of 180 seconds, followed by dissociation of 3600 seconds. Glycine (10 mM, pH 1.5) was injected as regeneration buffer after the dissociation phase.
The sensorgrams for the reference channel and the buffer channel were subtracted from the test sensorgrams. The experimental data were fitted with a 1:1 binding model. The molecular weight of the human 4IgB7H3 used in the calculation was 47.8 kDa.

human 2IgB7H3 = molecular target: T3, human 2IgB7H3 (Homo sapiens, UniProt Q5ZPR3); experiment: Binding affinity for human 2IgB7H3 (SPR)
T3 construct: His tag; purchased ACROBiosystems B73-H52E2
T3 sequence (Q5ZPR3 29-316 isoform Q5ZPR3-2 limits assumed): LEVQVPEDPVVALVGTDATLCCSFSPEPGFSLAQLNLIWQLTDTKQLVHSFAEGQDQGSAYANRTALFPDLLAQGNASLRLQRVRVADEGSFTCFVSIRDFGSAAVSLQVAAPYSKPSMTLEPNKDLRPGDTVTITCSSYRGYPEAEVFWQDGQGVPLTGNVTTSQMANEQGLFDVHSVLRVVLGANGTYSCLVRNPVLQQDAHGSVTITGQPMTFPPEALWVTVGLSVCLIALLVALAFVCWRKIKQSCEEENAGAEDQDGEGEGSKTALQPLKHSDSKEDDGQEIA
Procedure: The affinity of antibodies for human 2IgB7H3 was determined using surface plasmon resonance (SPR). The affinity of antibodies for human 2IgB7H3 was determined by Biacore 8K. An activator was prepared by mixing 400 mM EDC and 100 mM NHS (GE) immediately prior to injection into the channel. The CM5 sensor chip was activated for 420 seconds with the activator. Goat anti-human Fc IgG (30 μg/mL in 10 mM NaAc, pH 4.5) was then injected into the channel at a flow rate of 10 μL/min for 420 seconds. The chip was deactivated by 1 M ethanolamine hydrochloric acid. The antibodies diluted in running buffer (1×HBS-EP+) were injected into the channel at a flow rate of 10 μL/min for 30 seconds. Seven concentrations (500 nM, 250 nM, 125 nM, 62.5 nM, 31.25 nM, 15.625 nM, and 7.813 nM) of analyte human 2IgB7H3 were injected sequentially into the channel at a flow rate of 30 μL/min for an association phase of 120 seconds, followed by dissociation of 300 seconds. Glycine (10 mM, pH 1.5) was injected as regeneration buffer after the dissociation phase.
The sensorgrams for the reference channel and the buffer channel were subtracted from the test sensorgrams. The experimental data were fitted with a 1:1 binding model. The molecular weight of the human 2IgB7H3 used in the calculation was 25.2 kDa.

cynomolgus monkey B7H3 [4] = experiment: Binding affinity for cynomolgus monkey B7H3 (SPR)
Procedure: as §2, with “cynomolgus monkey B7H3” for “human 4IgB7H3”, “Seven concentrations (100 nM, 50 nM, 25 nM, 12.5 nM, 6.25 nM, 2.125 nM, and 1.563 nM) of analyte human 4IgB7H3 were injected sequentially into the channel at a flow rate of 30 μL/min for an association phase of 180 seconds, followed by dissociation of 3600 seconds.” left out
The sensorgrams for the reference channel and the buffer channel were subtracted from the test sensorgrams. The experimental data for 6 analyte concentrations (50 nM, 25 nM, 12.5 nM, 6.25 nM, 3.125 nM, and 1.563 nM) were fitted with a 1:1 binding model. The molecular weight of the cynomolgus monkey B7H3 used in the calculation was 49 kDa.

With CC[C@@]1(O)C(=O)OCc2c1cc1n(c2=O)Cc2c-1nc1cc(F)c(C)c3c1c2[C@@H](NC(=O)C[C@H](C)O)CC3 [P-III-30] the AUC(0-t) ([1]; 3 mg/kg) was 1.07 ng·h/mL, the Cmax ([1]; 3 mg/kg) was 0.133 ng/mL and the AUC(0-t) ([1]; 10 mg/kg) was 44.5 ng·h/mL. For the same molecule, the Cmax ([1]; 10 mg/kg) was 0.573 ng/mL.

B1: Enoblituzumab (MacroGenics): anti-B7H3 benchmark antibody (MacroGenics), SEQ ID NOs: 117 and 119 in U.S. 20120294796A1 (antibody, chains of the INN, looked up)
heavy: EVQLVESGGGLVQPGGSLRLSCAASGFTFSSFGMHWVRQAPGKGLEWVAYISSDSSAIYYADTVKGRFTISRDNAKNSLYLQMNSLRDEDTAVYYCGRGRENIYYGSRLDYWGQGTTVTVSSASTKGPSVFPLAPSSKSTSGGTAALGCLVKDYFPEPVTVSWNSGALTSGVHTFPAVLQSSGLYSLSSVVTVPSSSLGTQTYICNVNHKPSNTKVDKRVEPKSCDKTHTCPPCPAPELVGGPSVFLLPPKPKDTLMISRTPEVTCVVVDVSHEDPEVKFNWYVDGVEVHNAKTKPPEEQYNSTLRVVSVLTVLHQDWLNGKEYKCKVSNKALPAPIEKTISKAKGQPREPQVYTLPPSREEMTKNQVSLTCLVKGFYPSDIAVEWESNGQPENNYKTTPLVLDSDGSFFLYSKLTVDKSRWQQGNVFSCSVMHEALHNHYTQKSLSLSPG
light: DIQLTQSPSFLSASVGDRVTITCKASQNVDTNVAWYQQKPGKAPKALIYSASYRYSGVPSRFSGSGSGTDFTLTISSLQPEDFATYYCQQYNNYPFTFGQGTKLEIKRTVAAPSVFIFPPSDEQLKSGTASVVCLLNNFYPREAKVQWKVDNALQSGNSQESVTEQDSKDSTYSLSSTLTLSKADYEKHKVYACEVTHQGLSSPVTKSFNRGEC
In the case of B1, the “Maximum MFI” value (human B7H3) is reported as 4644, the “Antibody internalization Maximum MFI” value [2] is reported as 39777 and the “Maximum MFI” value (cynomolgus monkey B7H3 [3]) is reported as 19700. For the same molecule, the “ka” value (human 4IgB7H3) was 124000 M⁻¹ s⁻¹, the “kd (dissociation rate constant)” value (human 4IgB7H3) was 0.000126 s⁻¹ and the “ka” value (human 2IgB7H3) was 64400 M⁻¹ s⁻¹. For the same molecule, the “kd (dissociation rate constant)” value (human 2IgB7H3) was 0.0168 s⁻¹, the “ka” value (cynomolgus monkey B7H3 [4]) was 185000 M⁻¹ s⁻¹ and the “kd (dissociation rate constant)” value (cynomolgus monkey B7H3 [4]) was 8.14e-05 s⁻¹.
